Laboratory results: the supplement of paper PMC9170038

Test system: MS2 coat protein
Assay: apparent KD of MS2 coat protein; designed switch direction (-1 OFF switch, 1 ON switch): 1; higher = weaker reporter binding
Procedure, shortened: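 Stalled E. coli RNA polymerase transcribed designed RNA switches on Illumina chips, which were then titrated with SNAP-549-labelled MS2 coat protein, doubling from 0.7 or 1.5 nM to 3 µM. Steps lasted from 0.8–1.5 h at the lowest concentration to 10–20 min at the highest. The apparent KD is each design's median over clusters of curve-fitted normalised fluorescence.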

[1] = input ligand: microRNA oligo, concentration not stated
[2] = Eterna round: R95, input ligand: microRNA oligo, concentration not stated
[3] = Eterna round: R95, input ligand: FMN 200 uM
[4] = Eterna round: R95, input ligand: none

Row | Sequence | apparent KD of MS2 coat protein (input ligand: FMN 200 uM) [nM] | apparent KD of MS2 coat protein [1] [nM] | apparent KD of MS2 coat protein (input ligand: none) [nM] | apparent KD of MS2 coat protein [2] [nM] | apparent KD of MS2 coat protein [3] [nM] | apparent KD of MS2 coat protein [4] [nM]
1 | GGUGGGUUACUACCAACACAUGAGGAUCACCCAUGUUUUGGGAAGGAUAUGGUACCUAUUUGGUACCAGAAGGUCCAGUUAGUG [salish99_SSNG3_r04_703] (Eterna round: R96, puzzle: Same State NG 3) | 61.9 | 37.7 | 40 |  |  | 
2 | GUAGCAUACCGAGGAUAUUCAUAUACAUGAGGAUCACCCAUGUUUAGGCCACAUUAGUGGCCUUGGGAGAAGGCGGAAUGCUAC [Xeonanis - 20 Mod44] (Eterna round: R96, puzzle: Same State NG 2) | 13 | 15.7 | 23.4 |  |  | 
3 | AUAGUUGCCGAAGGAUAUGAUGAGGAUCACCCAUCAGAAGGUUGGCUAUUGGGUGGACAUGAGGAUCACCCAUGUCCUUUGGUA (Eterna round: R96, puzzle: Same State NG 1) | 95.1 | 119 | 147 |  |  | 
4 | AUAAAACAUGAGGAUCACCCAUGUCAACAAAAUCGAGGAUAUGGACAGACUUCGGUCUGUCCAGAAGGCGAAUAAU [salish99_ss1_r3_100] (Eterna round: R96, puzzle: Same State 1) | 15.1 | 12.7 | 17.4 |  |  | 
5 | GUGGCCCAGGCACAGGAUAUGUUUCUCGUAACAUGAGGAUCACCCAUGUGCCUAUGAGAUUUUUUGCAGAAGGGUGCACGCCACG [JL Atiinbe mod 02] (puzzle: Same State 2) |  |  |  | 134 |  | 
6 | GGCCAGAGUCAAGGAUAUGCUACCGUUUCGGUAGCAGAAGGUGAUCACAUGAGGAUCACCCAUGUAUACUGCGAGAGUAGGGCC [JL SSNG1 3.66] (Eterna round: R96, puzzle: Same State NG 1) | 94.5 | 23.6 | 197 |  |  | 
7 | AAAGUACAUGAGGAUCACCCAUGUAAAAGACUCACAGGAUAUGCUUCUUGUGUACAAGCUGCAGAAGGGUGAAAAG [Oraes] (puzzle: Same State 1) |  |  |  | 55.9 | 30.8 | 107
8 | GCUCGCACGAUGACCGACAUGAGGAUCACCCAUGUGUGUCGGUAGGAUAUCUAUAUUAAGGAUUUAGAGAAGGGCCGAGCGAGC [SameState NG3 #21] (Eterna round: R96, puzzle: Same State NG 3) | 57.1 | 104 | 117 |  |  | 
9 | GCCGCGUUUCGCGCCUACAUGAGGAUCACCCAUGUUUGUAGGCAGGAUAUCGUCCGCUCUGCGGGCGAGAAGGGCUGUUGUGGG [salish99_SSNG3_R04_023] (Eterna round: R96, puzzle: Same State NG 3) | 214 | 139 | 179 |  |  | 
10 | GCUGCAAGGGCAGGAUAUGGGUUCAGAGCAGAAGUGCGCUUUGAUACAUGAGGAUCACCCAUGUCCCAGAAGGGCCCAAGCGGC [Veribe] (Eterna round: R96, puzzle: Same State NG 2) | 17.7 | 98.3 | 159 |  |  | 
11 | UUCUCAUUUACAUGAGGAUCACCCAUGUUUUUAUGUCAGAGAUAGGAUAUAGUUCUCUCGUUUUUCUAGAAGGAUCUUUUUAUU [JR_SSNG3_Sub086] (Eterna round: R96, puzzle: Same State NG 3) | 65.9 | 41.3 | 64.6 |  |  | 
12 | AAGAAACAUGAGGAUCACCCAUGUCGAAAUAACACAGGAUAUCGCACGACUACGGUGCGGCGAGAAGGGUGAGGAA [Estere] (puzzle: Same State 1) |  |  |  | 78.4 | 54.7 | 94.7
13 | GUAGCAUACCGAGGAUAUUCAUAAUACAUGAGGAUCACCCAUGUAAGGCCACAUUAGUGGCCUUGGGAGAAGGCGGAAUGCUAC [Xeonanis - 20 Mod43] (Eterna round: R96, puzzle: Same State NG 2) | 13.7 | 35.7 | 44 |  |  | 
14 | GCUCGAAUCAGAACCAACAUGAGGAUCACCCAUGUGUGUUGGUAGGAUAUCGUUUCUAAGAGAAACGAGAAGGGCCGAACGAGC [SameState NG3 #6] (Eterna round: R96, puzzle: Same State NG 3) | 41 | 52.3 | 75.7 |  |  | 
15 | CGCUGUCACGCAGGAUAUGCAUUGGAUUACAAUGCAGAAGGGCGAUCACAUGAGGAUCACCCAUGUGUAGACAGUGAAGAAGAG [MOD2 JMF Solution 3] (Eterna round: R96, puzzle: Same State NG 1) | 46.1 | 479 | 480 |  |  | 
16 | GUGGUCUGACAUGAGGAUCACCCAUGUGGAAUAAAUACGGGUCAGGAUAUCUUGAGGAUCACCCAAGAGAAGGGACGGAUUGUU (Eterna round: R96, puzzle: Same State NG 3) | 24 | 23.5 | 35.1 |  |  | 

Row | Sequence | apparent KD of MS2 coat protein (input ligand: FMN 200 uM) [nM] | apparent KD of MS2 coat protein [1] [nM] | apparent KD of MS2 coat protein (input ligand: none) [nM] | apparent KD of MS2 coat protein [2] [nM] | apparent KD of MS2 coat protein [3] [nM] | apparent KD of MS2 coat protein [4] [nM]
17 | UGUCCAGCCUGAGCUGGACAAAAGCAUGUACAUGAGGAUCACCCAUGUUCAUGUACAAGCUUUUUGCUCGUCUUACA [salish99_208a_r3_080] (puzzle: Sensor for hsa-mir-208a) |  |  |  | 15.2 | 347 | 529
18 | AAUUAUUCACAUGAGGAUCACCCAUGUGAUAUUAUUAUUACAAGCUUUUUGCUCGUCUUGUUCCUCAGUGAAUAAUU [Default title] (puzzle: Sensor for hsa-mir-208a version 2) |  |  |  | 74.5 | 18.3 | 15.9
19 | GUGGUCAGACAUGAGGAUCACCCAUGUGGAAUAAAUAAGGGUUAGGAUAUGGAAUAUAGGAUAUACCAGAAGGGAUGGUUGGUG (Eterna round: R96, puzzle: Same State NG 3) | 123 | 108 | 111 |  |  | 
20 | AACAAUCUAUUUGAGGAUAUCAUGAAAUAAACAUGAGGAUCACCCAUGUGCAGGAAAACUGCAUAUGAGAAGGCAGAUAGAUUGA [salish99_ss2_r3_025] (puzzle: Same State 2) |  |  |  | 30.2 | 25.4 | 24.1
21 | CGAGGCGUACAUGAGGAUCACCCAUGUACCUAACAACAAAGCAAGGAUAUCCUGGCUAUAAUACAGGAGAAGGUGUGGUCCUUA [Eternabot solution 15] (Eterna round: R96, puzzle: Same State NG 3) |  | 107 |  |  |  | 
22 | AUUAUUUAUGCAGGAUAUGAUUAACAUGAGGAUCACCCAUGUGGUGUUGUGAGUAAGGAGAGUGAUCAGAAGGGCAUUUUUAUU [JMF's solution 52] (Eterna round: R96, puzzle: Same State NG 2) | 627 | 493 | 568 |  |  | 
23 | UGUUGUAUUACAGGAUAUCUAUUAUUUGUAUUUAGAGAAGGGUAUUCACAUGAGGAUCACCCAUGUAUAUACGAGGAAGUUGUG [JMF's solution 20] (Eterna round: R96, puzzle: Same State NG 1) |  | 42.4 |  |  |  | 
24 | GAGGGCGGAAACAACAUGAGGAUCACCCAUGUUGCCGAAAGGCAGGAUAUCCGGCGAAAGCAGAAGGAGAAGGGUCGAAAAGAA [AK SSNG3-V2-41] (Eterna round: R96, puzzle: Same State NG 3) | 20.7 | 20 | 24.1 |  |  | 
25 | GCUAGAAUAAACGCCUACAUGAGGAUCACCCAUGUAUGUAGGCAGGAUAUCGUUUGCAAAGCAAACGAGAAGGGCCUUACUAGC [Mat - Same State NG 3 - JL Mod - D32] (Eterna round: R96, puzzle: Same State NG 3) | 20.2 | 22.2 | 37.1 |  |  | 
26 | UGGAUCUAGGCUUGCCUGGGUCCAUGCUGACAUGAGGAUCACCCAUGUGCAUCCUACAAGCUUUUUGCUUGUCUGUC (Eterna round: R96, puzzle: Sensor for hsa-mir-208a) | 384 | 607 | 530 |  |  | 
27 | ACUUGCUUUUUGCUCAUCUUAUGUCCGAAACAUGAGGAUCACCCAUGUGUAGAUUAUGUGUUGUUUUUGAUACGUGA [JR_SHM208A_Sub066] (puzzle: Sensor for hsa-mir-208a) |  |  |  | 19 | 24.9 | 26.9
28 | GUUACAUGAGGAUCACCCAUGUGUGUGUGGGAGUGAGUGGCUUAGGAUAUCUAUGAUUUAAGUUAAGAGAAGGGAGAUUGUUGU [SS-NG3-LRO04] (Eterna round: R96, puzzle: Same State NG 3) | 441 | 330 | 344 |  |  | 
29 | UUGAAUAAUUAAGGAUAUCGAGUACAUAUGUUAAACAUGAGGAUCACCCAUGUGGGUUGCGGUAUCGAGAAGGUAAAAGAAAAG [Mat - Same State NG 2 - JL mod - D60] (Eterna round: R96, puzzle: Same State NG 2) | 32.6 | 21.9 | 35.8 |  |  | 
30 | GGGCCAGCUUGUGCUGGGCCUUCGCAUGCACAUGAGGAUCACCCAUGUCGUGUACAUGCUUGGUGCCCGUCUUUAAA [Photon Torp-13] (puzzle: Sensor for hsa-mir-208a) |  |  |  | 13.9 | 102 | 103
31 | GAGAAUCUAUCUCAGGAUAUCAUGUCAAAGACAUGAGGAUCACCCAUGUACCAGGAAACUGGUUAUGAGAAGGGAGAUAGAUUCA [Mat - Same State 2 - Mod - D35] (puzzle: Same State 2) |  |  |  | 26.2 | 103 | 224
